Laboratory results as given in patent US6403325B1, “Methods and compounds for treating alzheimer's disease” (priority 1997, dated 2002).

B1: Wnt5a: Wnt family member expressed in C57MG cells from a Wnt5a retrovirus (protein, UniProt P22725 62-380, looked up)
Protein Wnt-5a: IIGAQPLCSQLAGLSQGQKKLCHLYQDHMQYIGEGAKTGIKECQYQFRHRRWNCSTVDNTSVFGRVMQIGSRETAFTYAVSAAGVVNAMSRACREGELSTCGCSRAARPKDLPRDWLWGGCGDNIDYGYRFAKEFVDARERERIHAKGSYESARILMNLHNNEAGRRTVYNLADVACKCHGVSGSCSLKTCWLQLADFRKVGDALKEKYDSAAAMRLNSRGKLVQVNSRFNSPTTQDLVYIDPSPDYCVRNESTGSLGTQGRLCNKTSEGMDGCELMCCGRGYDQFKTVQTERCHCKFHWCCYVKCKKCTEIVDQFVCK
B2: Wnt1: Wnt1 protein, member of the Wnt family, expressed in cells from a retrovirus encoding it (protein, UniProt P04426 28-370, looked up)
Proto-oncogene Wnt-1: ANSSGRWWGIVNIASSTNLLTDSKSLQLVLEPSLQLLSRKQRRLIRQNPGILHSVSGGLQSAVRECKWQFRNRRWNCPTAPGPHLFGKIVNRGCRETAFIFAITSAGVTHSVARSCSEGSIESCTCDYRRRGPGGPDWHWGGCSDNIDFGRLFGREFVDSGEKGRDLRFLMNLHNNEAGRTTVFSEMRQECKCHGMSGSCTVRTCWMRLPTLRAVGDVLRDRFDGASRVLYGNRGSNRASRAELLRLEPEDPAHKPPSPHDLVYFEKSPNFCTYSGRLGTAGTAGRACNSSSPALDGCELLCCGRGHRTRTQRVTERCNCTFHWCCHVSCRNCTHTRVLHECL

Tests used:
[1] = system: C57MG mammary epithelial cell line; test: Aβ levels in C57MG cells infected with Wnt retrovirus; format: cell-based, mouse; settings: C57MG cells infected with retrovirus expressing the Wnt protein
PC12 cells [2] = test: Aβ levels by ELISA in Wnt1-expressing PC12 lines; format: cell-based; settings: 12 independent Wnt1-expressing PC12 lines
From the text: (§1) A retrovirus encoding the Wnt1 protein was introduced into PC12 cells as described in Mol. Cell. Biol. 14:466, (1995), and twelve independent Wnt1-expressing lines were established. Wnt1 expression in the lines was examined by measuring β-catenin levels.

PC12 cells [3] = test: β-catenin levels in Wnt1-expressing PC12 lines; format: cell-based; settings: 12 independent Wnt1-expressing PC12 lines
From the text: as §1

Molecule	Aβ levels [1]	levels of Aβ peptide in the cell lines (PC12 cells [2]; ELISA)	Aβ levels in the culture media (PC12 cells [2]; culture media)	β catenin stabilization (PC12 cells [3])
B1	did not show increased Aβ levels	–	–	–
B2	increase in Aβ levels	positively correlated with Wnt1 expression	positive correlation with Wnt1 expression	positively correlated with the degree of β catenin stabilization
